Assay results reported in US20190345206A1 (MOMENTA PHARMACEUTICALS, published 2019).

Experiments:
FcγRI = molecular target: T1, FcγRI (UniProt P12314 16-374, limits assumed); assay: cell-based TR-FRET competition assay (CISBIO kit), FcγRI cells
T1 construct: whole, on cells; also called CD64
Experimental: (§1) A cell-based binding assay was utilized to confirm that the amino acid modifications at positions I253, e.g., I253A, and R292, e.g., R292P, were specific to the intended receptors, e.g., reduced binding affinity to the FcRn receptor and FcγRIIb receptor, respectively. Relative binding of Fc constructs and controls to Fc gamma receptors (FcγRs) was measured using cell-based homogeneous time-resolved fluorescence resonance energy transfer (TR-FRET) competition assays (CISBIO®) kits for FcγRI, FcγRIIa H131, FcγRIIb, and FcγRIIIa V158. Assay reagents were prepared according to the manufacturer's instructions. A 10-point, 3-fold serial dilution series, plus one blank per sample, was generated using an automated liquid handler (Freedom EVOware 150, TECAN®). Assay plates were read on a PHERAstar fluorescent reader (BMG Labtech GmbH) at 665 and 620 nm. An IgG1 sample was used as a control.

FcγRIIIa V158 = molecular target: T2, FcγRIIIa V158 (UniProt P08637 17-254, limits assumed); assay: cell-based TR-FRET competition assay (CISBIO kit), FcγRIIIa V158 cells
T2 construct: whole, on cells; V158 is the allotype as printed (mature numbering); also called CD16a
Experimental: as §1

Recombinant human FcRn = molecular target: T3, Recombinant human FcRn (human, UniProt P55899 24-297; P61769 21-119, limits assumed); assay: SPR at pH 6.0; human FcRn in solution over Fc construct captured by goat anti-human IgG
T3 construct: also called neonatal Fc receptor
Text: To assess the impact of the amino acid modifications at position I253, e.g., I253A, and R292, e.g., R292P, on FcRn binding a surface plasmon resonance (SPR) binding experiment was designed to measure the affinity and normalized binding level of solution-phase human FcRn to sensor-bound Fc constructs at pH 6.0. A goat anti-human IgG was immobilized on reference and test sensor surfaces using amine coupling chemistry. Fc constructs were captured on the test sensor surface. Recombinant human FcRn was flowed over the sensor surface in a dilution series with a top concentration of 1.0 μM. The sensor surface was regenerated at the end of each cycle with 10 mM glycine pH 1.7. Double-reference subtracted sensorgrams were subjected to equilibrium binding analysis; the maximum binding level (RMax) and the equilibrium dissociation constant (KD) were estimated. The normalized maximum binding level was calculated by dividing the RMax by the FC-construct capture level. Construct 16 was captured at the same level as construct 4, […] (FIG. 20).

T1 sequence (P12314 16-374 limits assumed): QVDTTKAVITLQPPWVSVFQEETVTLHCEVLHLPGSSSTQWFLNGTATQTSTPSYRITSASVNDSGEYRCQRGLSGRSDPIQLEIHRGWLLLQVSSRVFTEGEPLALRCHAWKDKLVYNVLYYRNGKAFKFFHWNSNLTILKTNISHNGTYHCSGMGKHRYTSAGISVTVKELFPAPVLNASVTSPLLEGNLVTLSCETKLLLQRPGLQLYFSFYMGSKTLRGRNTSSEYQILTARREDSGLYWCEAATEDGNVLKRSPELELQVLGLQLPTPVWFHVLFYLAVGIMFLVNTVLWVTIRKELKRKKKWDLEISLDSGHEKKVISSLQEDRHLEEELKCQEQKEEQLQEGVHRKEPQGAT
T2 sequence (P08637 17-254 F176V limits assumed): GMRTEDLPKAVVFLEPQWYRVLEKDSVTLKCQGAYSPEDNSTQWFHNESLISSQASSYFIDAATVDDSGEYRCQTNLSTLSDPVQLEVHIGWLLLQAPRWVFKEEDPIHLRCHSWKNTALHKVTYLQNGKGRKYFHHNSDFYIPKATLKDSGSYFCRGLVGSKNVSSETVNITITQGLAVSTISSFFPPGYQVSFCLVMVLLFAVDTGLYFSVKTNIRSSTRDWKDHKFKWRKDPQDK

binding result (FcγRI)	binding result (FcγRIIIa V158)	Binder	binding result (Recombinant human FcRn)
binds	binds	Fc construct 18 (other, Construct 4 with R292P in all three Fc domains and I253A in the two N-terminal Fc domains; also called Q1) chain 1: DKTHTCPPCPAPELLGGPSVFLFPPKPKDTLMASRTPEVTCVVVDVSHEDPEVKFNWYVDGVEVHNAKTKPPEEQYNSTYRVVSVLTVLHQDWLNGKEYKCKVSNKALPAPIEKTISKAKGQPREPQVYTLPPCRDKLTKNQVSLWCLVKGFYPSDIAVEWESNGQPENNYKTTPPVLDSDGSFFLYSKLTVDKSRWQQGNVFSCSVMHEALHNHYTQKSLSLSPGKGGGGGGGGGGGGGGGGGGGGDKTHTCPPCPAPELLGGPSVFLFPPKPKDTLMISRTPEVTCVVVDVSHEDPEVKFNWYVDGVEVHNAKTKPPEEQYNSTYRVVSVLTVLHQDWLNGKEYKCKVSNKALPAPIEKTISKAKGQPREPQVYTLPPSRDELTKNQVSLTCLVKGFYPSDIAVEWESNGQPENNYKTTPPVLKSDGSFFLYSDLTVDKSRWQQGNVFSCSVMHEALHNHYTQKSLSLSPG chain 2: DKTHTCPPCPAPELLGGPSVFLFPPKPKDTLMASRTPEVTCVVVDVSHEDPEVKFNWYVDGVEVHNAKTKPPEEQYNSTYRVVSVLTVLHQDWLNGKEYKCKVSNKALPAPIEKTISKAKGQPREPQVCTLPPSRDELTKNQVSLSCAVDGFYPSDIAVEWESNGQPENNYKTTPPVLDSDGSFFLVSKLTVDKSRWQQGNVFSCSVMHEALHNHYTQKSLSLSPG	
		Fc construct 19 (other, Construct 4 with R292P and I253A in all three Fc domains; also called Q2) chain 1: DKTHTCPPCPAPELLGGPSVFLFPPKPKDTLMASRTPEVTCVVVDVSHEDPEVKFNWYVDGVEVHNAKTKPPEEQYNSTYRVVSVLTVLHQDWLNGKEYKCKVSNKALPAPIEKTISKAKGQPREPQVYTLPPCRDKLTKNQVSLWCLVKGFYPSDIAVEWESNGQPENNYKTTPPVLDSDGSFFLYSKLTVDKSRWQQGNVFSCSVMHEALHNHYTQKSLSLSPGKGGGGGGGGGGGGGGGGGGGGDKTHTCPPCPAPELLGGPSVFLFPPKPKDTLMASRTPEVTCVVVDVSHEDPEVKFNWYVDGVEVHNAKTKPPEEQYNSTYRVVSVLTVLHQDWLNGKEYKCKVSNKALPAPIEKTISKAKGQPREPQVYTLPPSRDELTKNQVSLTCLVKGFYPSDIAVEWESNGQPENNYKTTPPVLKSDGSFFLYSDLTVDKSRWQQGNVFSCSVMHEALHNHYTQKSLSLSPG chain 2: DKTHTCPPCPAPELLGGPSVFLFPPKPKDTLMASRTPEVTCVVVDVSHEDPEVKFNWYVDGVEVHNAKTKPPEEQYNSTYRVVSVLTVLHQDWLNGKEYKCKVSNKALPAPIEKTISKAKGQPREPQVCTLPPSRDELTKNQVSLSCAVDGFYPSDIAVEWESNGQPENNYKTTPPVLDSDGSFFLVSKLTVDKSRWQQGNVFSCSVMHEALHNHYTQKSLSLSPG	no binding (tested: top concentration of 1.0 µM)
